In paper PMC10666025, “In pursuit of degenerative brain disease diagnosis: Dementia biomarkers detected by DNA aptamer-attached portable graphene biosensor”:

Legend:
[1] = molecular target: Amyloid-beta 1-42 (synthetic) (UniProt P05067 672-713); assay: GFET Dirac shift; LoD 10 fM (not a Kd); GFET with immobilised aptamer; protein in 0.1x PBS (LoD series) or PBS; aptamer dissolved in 1x PBS + 0.5 mM MgCl2; pH and temperature of binding not given
[2] = molecular target: Amyloid-beta 1-42, brain-derived (human (AD patient brain), UniProt P05067 672-713); assay: GFET Dirac shift; detected to ~10 fM, dose-dependent; GFET with immobilised aptamer; protein in 0.1x PBS (LoD series) or PBS; aptamer dissolved in 1x PBS + 0.5 mM MgCl2; pH and temperature of binding not given; settings: protein: native
[3] = molecular target: Tau441 (synthetic/commercial) (human, UniProt P10636-8 1-441); assay: GFET Dirac shift; LoD 1-10 pM in abstract, ~100 fM in Results (not a Kd); GFET with immobilised aptamer; protein in 0.1x PBS (LoD series) or PBS; aptamer dissolved in 1x PBS + 0.5 mM MgCl2; pH and temperature of binding not given
Tau, brain-derived = Tau, brain-derived (human (AD patient brain), UniProt P10636-8 1-441); assay: GFET Dirac shift; detected to 10-100 fM; GFET with immobilised aptamer; protein in 0.1x PBS (LoD series) or PBS; aptamer dissolved in 1x PBS + 0.5 mM MgCl2; pH and temperature of binding not given; settings: protein: native
[4] = molecular target: alpha-synuclein (synthetic/commercial) (UniProt P37840 1-140); assay: GFET Dirac shift; LoD 10-100 fM (not a Kd); GFET with immobilised aptamer; protein in 0.1x PBS (LoD series) or PBS; aptamer dissolved in 1x PBS + 0.5 mM MgCl2; pH and temperature of binding not given
[5] = molecular target: alpha-synuclein, brain-derived (human (PD patient brain), UniProt P37840 1-140); assay: GFET Dirac shift; detected to 10-100 nM as printed; GFET with immobilised aptamer; protein in 0.1x PBS (LoD series) or PBS; aptamer dissolved in 1x PBS + 0.5 mM MgCl2; pH and temperature of binding not given

Amyloid-beta 1-42 (synthetic), sequence (P05067 672-713): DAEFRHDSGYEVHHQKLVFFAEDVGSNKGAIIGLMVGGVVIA
Amyloid-beta 1-42, brain-derived, sequence (P05067 672-713): as above
Tau, brain-derived, sequence (P10636 other isoform, or with tags, fused parts or gaps): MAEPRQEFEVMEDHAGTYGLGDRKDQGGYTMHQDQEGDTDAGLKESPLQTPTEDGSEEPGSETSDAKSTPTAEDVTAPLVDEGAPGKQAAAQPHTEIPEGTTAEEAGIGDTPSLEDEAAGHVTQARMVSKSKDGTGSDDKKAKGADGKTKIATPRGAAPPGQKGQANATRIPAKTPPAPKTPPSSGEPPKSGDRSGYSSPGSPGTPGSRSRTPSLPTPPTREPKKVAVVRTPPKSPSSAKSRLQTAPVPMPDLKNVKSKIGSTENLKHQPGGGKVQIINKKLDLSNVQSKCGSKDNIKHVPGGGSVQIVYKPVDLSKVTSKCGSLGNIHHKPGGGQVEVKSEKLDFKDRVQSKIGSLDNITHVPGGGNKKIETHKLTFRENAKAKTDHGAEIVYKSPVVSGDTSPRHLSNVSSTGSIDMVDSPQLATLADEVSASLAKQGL
Tau441 (synthetic/commercial), sequence (P10636 other isoform, or with tags, fused parts or gaps): as above

B1: Abeta aptamer Abeta7-92-1H1 (ssDNA)
DNA: CCGGTGGGGGACCAGTACAAAAGTGGGTAGGGCGGGTTGGAAAA
modifications: 3' amino
- binding result [1]: binds
- binding result [2]: binds

B2: Tau aptamer IT2 (ssDNA)
DNA: CAGCACCGTCAACTGAATAAGGACTGCTTAGGATTGCGATGATTCAGGGTGATGCGATGGAGATGT
modifications: 3' amino
- binding result [3]: binds
- binding result (Tau, brain-derived): binds

B3: alpha-synuclein aptamer F5R1 (ssDNA)
DNA: ATCGAGTGTGTACGGGGTCCGGTAGGGTGGCGAGGTCTTCCTGTCGTAGCAGGATCCA
modifications: 3' amino
- binding result [4]: binds
- binding result [5]: binds
